Consider one protein from article PMC4974627 (Biochemistry, 2016).

This data set concerns the molecule itself. The data set is described as follows: native MS.

B1: Arabidopsis thaliana S-nitrosoglutathione reductase (AtGSNOR), CysSH-treated control (unmodified) (enzyme)
chain: ATQGQVITCKAAVAYEPNKPLVIEDVQVAPPQAGEVRIKILYTALCHTDAYTWSGKDPEGLFPCILGHEAAGIVESVGEGVTEVQAGDHVIPCYQAECRECKFCKSGKTNLCGKVRSATGVGIMMNDRKSRFSVNGKPIYHFMGTSTFSQYTVVHDVSVAKIDPTAPLDKVCLLGCGVPTGLGAVWNTAKVEPGSNVAIFGLGTVGLAVAEGAKTAGASRIIGIDIDSKKYETAKKFGVNEFVNPKDHDKPIQEVIVDLTDGGVDYSFECIGNVSVMRAALECCHKGWGTSVIVGVAASGQEISTRPFQLVTGRVWKGTAFGGFKSRTQVPWLVEKYMNKEIKVDEYITHNLTLGEINKAFDLLHEGTCLRCVLDTSK
Broadly, the stoichiometry N is the number of molecules, sites or subunits per partner or assembly. For B1, the “stoichiometry N” value is 2.
